Where only a bound is given, the exact number is not on record here.

The target in one assay is IL31RA (mouse) (UniProt Q8K5B1). In words: cell-based or functional assay.
The next assay deals with TrkA (mouse) (UniProt Q3UFB7). In words: cell-based or functional assay.
Sequence of UniProt Q3UFB7 (Q3UFB7 34-799): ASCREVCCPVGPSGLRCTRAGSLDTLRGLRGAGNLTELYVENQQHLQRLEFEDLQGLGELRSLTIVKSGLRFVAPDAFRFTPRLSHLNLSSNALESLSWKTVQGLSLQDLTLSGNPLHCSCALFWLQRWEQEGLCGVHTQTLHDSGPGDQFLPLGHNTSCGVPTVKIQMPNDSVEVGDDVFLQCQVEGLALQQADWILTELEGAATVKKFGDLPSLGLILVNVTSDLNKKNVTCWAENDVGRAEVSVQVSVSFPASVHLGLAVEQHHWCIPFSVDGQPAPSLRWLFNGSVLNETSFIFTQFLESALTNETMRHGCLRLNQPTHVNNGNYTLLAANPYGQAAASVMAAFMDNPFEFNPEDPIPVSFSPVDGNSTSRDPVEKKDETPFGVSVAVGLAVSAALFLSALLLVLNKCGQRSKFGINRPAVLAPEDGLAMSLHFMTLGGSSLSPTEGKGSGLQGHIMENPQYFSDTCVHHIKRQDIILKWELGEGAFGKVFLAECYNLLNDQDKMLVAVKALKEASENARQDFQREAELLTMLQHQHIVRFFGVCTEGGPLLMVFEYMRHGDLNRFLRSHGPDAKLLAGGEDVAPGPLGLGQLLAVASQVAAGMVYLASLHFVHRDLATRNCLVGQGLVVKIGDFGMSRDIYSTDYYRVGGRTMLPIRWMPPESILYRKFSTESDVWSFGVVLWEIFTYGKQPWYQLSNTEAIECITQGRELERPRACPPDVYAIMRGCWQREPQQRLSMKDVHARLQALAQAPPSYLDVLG

Sequence of UniProt Q8K5B1 (Q8K5B1 19-716): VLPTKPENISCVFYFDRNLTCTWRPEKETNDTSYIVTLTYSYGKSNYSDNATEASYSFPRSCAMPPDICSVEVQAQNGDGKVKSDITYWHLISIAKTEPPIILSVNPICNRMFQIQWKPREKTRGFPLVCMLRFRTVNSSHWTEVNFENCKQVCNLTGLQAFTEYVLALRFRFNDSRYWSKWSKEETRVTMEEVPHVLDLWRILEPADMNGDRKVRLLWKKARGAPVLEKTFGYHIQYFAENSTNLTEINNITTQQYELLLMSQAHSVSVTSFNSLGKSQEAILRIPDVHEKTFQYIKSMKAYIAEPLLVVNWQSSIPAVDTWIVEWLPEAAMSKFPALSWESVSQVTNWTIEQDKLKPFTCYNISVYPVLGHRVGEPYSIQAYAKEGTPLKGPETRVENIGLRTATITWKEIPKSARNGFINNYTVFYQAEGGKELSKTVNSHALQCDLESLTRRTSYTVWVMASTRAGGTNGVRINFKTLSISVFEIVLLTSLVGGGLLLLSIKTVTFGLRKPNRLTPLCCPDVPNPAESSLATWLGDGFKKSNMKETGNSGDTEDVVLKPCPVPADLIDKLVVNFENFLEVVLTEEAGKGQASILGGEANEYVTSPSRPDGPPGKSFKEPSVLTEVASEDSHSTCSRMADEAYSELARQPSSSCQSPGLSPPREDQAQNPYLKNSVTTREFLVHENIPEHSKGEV

“IL31^K134A-SNAP::AAV2-ΔHSPG (from UniProt P03135 1-735)” showed an overlap of virally infected cells with K14 positive keratinocytes, skin of wildtype mice, subcutaneous 3E+10 VG with IL31RA (mouse) of 100 percent.
With “NGF^R121W-SNAP::AAV2-ΔHSPG (from UniProt P03135 1-735)”, in the assay with TrkA (mouse), the TrkA positive DRG cells infected after retro-orbital injection of 3E+10 VG was 80%; the infected DRG cells that are TrkA positive after retro-orbital injection of 3E+10 VG is 83%; the overlap of virally infected (tdTomato) sensory neurons with TrkA antibody staining, trigeminal ganglia, 3 weeks after IV injection is greater than 80%.

The values above are taken from patent publication US20250057976A1.
